# In article PMC5959942, “Targeting G protein-coupled receptor signaling at the G protein level with a selective nanobody inhibitor” (Nature Communications, 2018):
# Substitutions are numbered along the chain they refer to.
# B1: Nb6 (VHH)
# VHH: QVQLVESGGGLVQAGGSLRLSCAASGSIFSINAMNWYRQAPGKRRELVAAITNGGSTNYADSVKGRFTISRDNAKNTVYLQMNSLKPEDTAVYYCNVGRSRGYWGQGTQVTVSS
# B2: Nb7 (VHH)
# VHH: B1 VHH with G16E, S27N, M34T, R44Q, A50G, N53T, G54R
# B3: Nb5-Flag (Nb5 with the 6 × His-tag replaced by the FLAG-tag) (VHH)
# VHH: B1 VHH with N35G, R44Q, N53R, S56R, I69L
# notes: source: HEK293T/17, transfected, in living cells; CHO-APJ cells, transiently transfected (pcDNA3.1(+)); not shown: FLAG, C-terminal, kept
# B4: Nb5 (llama-derived nanobody against the Gβ1γ1 dimer), C-terminal His-tag (VHH)
# VHH: B1 VHH with N35G, R44Q, N53R, S56R, I69L
# notes: Selected from a library in the phage display vector pMESy4; not shown: His6, C-terminal, kept
# Key:
# [1] = molecular target: T1, bovine Gβ1γ1 dimer (β1γ1 subunits of the visual G protein Gt, transducin) (bovine, UniProt P62871;P02698)
# [2] = molecular target: T2, Venus-Gβ2γ2 (Venus 156-239-Gβ2 + Venus 1-155-Gγ2) (UniProt P62879;P59768); assay: FRET or BRET; BRET between Venus-Gβγ and masGRK3ct-Nluc-HA in living HEK293T/17 cells, room temperature; GαoA, Nb5-Flag or Nb17-Flag co-transfected as competitor (plasmid ratio GαoA:Gβ:Gγ2:masGRK3ct:nanobody 2:1:1:1:12); conditions: partners not purified
# T2 construct: G protein beta subunit subtype 2, GenBank AF501883; G protein gamma subunit 2; also called Venus-Gβγ; Gβ2 + Gγ2 pair; source: HEK293T/17, transfected, in living cells; not shown: Venus 156-239 (with GGSGGG linker), N-terminal, kept
# [3] = molecular target: T3, Venus-Gβ1γ2 (Venus 156-239-Gβ1 + Venus 1-155-Gγ2) (UniProt P62873;P59768); assay: as above; conditions: partners not purified
# T3 construct: G protein beta subunit subtype 1; G protein gamma subunit 2; also called Venus-Gβγ; source: HEK293T/17, transfected, in living cells
# [4] = molecular target: T4, Venus-Gβ3γ2 (Venus 156-239-Gβ3 + Venus 1-155-Gγ2) (UniProt P16520;P59768); assay: as above; conditions: partners not purified
# T4 construct: G protein beta subunit subtype 3, GenBank M31328; G protein gamma subunit 2; also called Venus-Gβγ; Gβ3 + Gγ2 pair; source: HEK293T/17, transfected, in living cells; not shown: Venus 156-239 (with GGSGGG linker), N-terminal, kept
# [5] = molecular target: T5, Venus-Gβ4γ2 (Venus 156-239-Gβ4 + Venus 1-155-Gγ2) (UniProt Q9HAV0;P59768); assay: as above; conditions: partners not purified
# T5 construct: G protein beta subunit subtype 4, GenBank AF300648; G protein gamma subunit 2; also called Venus-Gβγ; Gβ4 + Gγ2 pair; source: HEK293T/17, transfected, in living cells; not shown: Venus 156-239 (with GGSGGG linker), N-terminal, kept
# [6] = molecular target: T1, bovine Gβ1γ1 dimer (β1γ1 subunits of …); assay: SPR; Biacore T100, 25 °C; Nb5 amine-coupled on CM5 (400-500 RU); Gβ1γ1 0.6-312 nM in 10 mM HEPES pH 7.5, 150 mM NaCl, 1 mM TCEP, 0.1% Tween-20; single-cycle kinetics, 1:1 Langmuir fit; conditions: both partners purified
# [7] = molecular target: T1, bovine Gβ1γ1 dimer (β1γ1 subunits of …); assay: SPR; same set-up as a5; affinity based (equilibrium) analysis; conditions: both partners purified
# [8] = molecular target: T6, mouse Gβ3 subtype from brain (mouse (endogenous in C57BL/6J brain), UniProt Q61011); assay: affinity purification with mass spectrometry; cholate-solubilized, DEAE-purified C57BL/6J mouse brain extract with a two molar excess of His-tagged Nb5, Ni2+-NTA then Talon resin; Gβ gel band digested in gel, LC-MS/MS; conditions: one partner purified
# T6 construct: G protein beta subunit subtype 3, mouse brain; Extracted as Gβγ; the Gγ partner is not identified; source: endogenous, C57BL/6J mouse brain membranes, cholate-solubilized and partially purified (DEAE Sepharose)
# [9] = molecular target: T7, mouse Gβ4 subtype from brain (mouse (endogenous in C57BL/6J brain), UniProt P29387); assay: as above; conditions: one partner purified
# T7 construct: G protein beta subunit subtype 4, mouse brain; Extracted as Gβγ; the Gγ partner is not identified; source: endogenous, C57BL/6J mouse brain membranes, cholate-solubilized and partially purified (DEAE Sepharose)
# [10] = molecular target: T8, mouse Gβ2 subtype from brain (mouse (endogenous in C57BL/6J brain), UniProt P62880); assay: as above; conditions: one partner purified
# T8 construct: G protein beta subunit subtype 2, mouse brain; Extracted as Gβγ; the Gγ partner is not identified; source: endogenous, C57BL/6J mouse brain membranes, cholate-solubilized and partially purified (DEAE Sepharose)
# [11] = molecular target: T9, mouse Gβ1 subtype from brain (mouse (endogenous in C57BL/6J brain), UniProt P62874); assay: as above; conditions: one partner purified
# T9 construct: G protein beta subunit subtype 1, mouse brain; Extracted as Gβγ; the Gγ partner is not identified; source: endogenous, C57BL/6J mouse brain membranes, cholate-solubilized and partially purified (DEAE Sepharose)
binder,measurement,setting,value
B1,binding result,[1],binds
B2,binding result,[1],binds
B3,binding result,[2],binds
same,binding result,[3],binds
same,binding result,[4],binds
same,binding result,[5],binds
B4,Kd,[6],43 nM
same,koff,[6],0.019 s⁻¹
same,kon,[6],440000 M⁻¹ s⁻¹
same,Kd,[7],53 nM
same,binding result,[8],binds
same,binding result,[9],binds
same,binding result,[10],binds
same,binding result,[11],binds
